Test results as given in the supplement of paper PMC10567573.

B1: ZNF263 (parent)
chain: EKPYKCPECGEIFAHSSNLLRHQR
B2: CHCHD6 (parent)
chain: MYKLSSEQFHEAASKMESTIKPRR

Variants of: B1
Experiment: protein stability index of a GFP-peptide fusion (GPS, HEK-293T) (PSI 1-6); higher = more stable
Settings: c terminus: a fixed tail appended
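Note: lentivirally expressed fusions sorted by FACS into six bins by GFP to DsRed ratio, PSI derived from sequencing read proportions per bin multiplied by bin number.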

Protein stability index, by site and new letter:
S16: P 2.81, V 2.83, A 2.36, E 3.04, L 3.26, N 1.33, W 3.44, M 3.32, T 1.84, C 2.73, I 2.96, R 2.3, G 2.48, F 3.53, Y 3.26, Q 2.45, H 2.55, D 2.47, K 1.71
P3: Q 1.78, K 1.52, R 1.89, H 1.88, I 1.82, N 1.39, E 2.91, L 2.57, D 3.11, V 2.13, F 2.69, W 2.83, M 2.78, A 2.29, S 2.09, C 2.1, T 2.85, Y 3.04
A14: W 2.69, I 2.27, N 2.7, Y 2.79, P 2.7, T 2.58, K 2.82, V 3.17, D 3.67, F 2.57, E 4.13, S 2.38, C 2.37, R 2.57, L 2.75, G 3.09, M 2.29, Q 2.45, H 3.17
Y4: L 2.47, M 1.84, E 2.99, K 2.73, F 2.15, T 2.91, W 2.29, P 2.12, R 2.48, Q 3.06, S 2.52, I 2.76, V 3.51, C 2.48, N 2.45, G 2.85
E11: Y 3.05, G 1.98, K 3, V 1.64, A 2.03, H 1.89, R 3.09, Q 2.68, F 1.79, P 1.85, L 1.76, N 1.73, T 2.1, M 1.72, I 2.19, S 1.13, D 2.38, W 2.42, C 2.25
F13: P 2.62, V 2.12, R 3.24, C 3.01, D 3.37, L 2.54, Y 2.19, S 2.75, W 1.5, G 2.35, M 2.1, Q 2.33, H 4.03, I 2.8, K 2.55, N 1.51
P7: Q 2.46, R 1.62, H 2.25, C 1.67, N 2.21, A 2.24, G 2.14, F 2.37, W 2.29, V 2.68, T 1.82, E 2.85, Y 2.7, M 2.49, I 2.28, K 1.49, L 2.33, S 2.8, D 3.71
N18: L 2.67, C 3.75, P 2.55, I 2.37, G 3.05, F 2.54, E 4.7, V 4.54, W 2.06, T 2.76, Y 3.37, A 4.13, D 4.05, M 2.82, H 4.44, S 4.02
G10: P 2.82, S 2.12, M 1.91, A 1.88, C 1.94, V 1.78, I 1.79, H 2.59, R 2.37, Q 1.84, W 2.14, N 1.58, K 2.31, L 1.74, T 1.92, F 2.03, Y 1.69, D 2.98
H15: L 1.95, I 1.7, V 2.49, F 2.94, R 2.31, Q 3.15, N 3.62, G 2.55, Y 1.8, M 1.56, A 2.3, W 2.65, T 3.55, P 2.54, C 3.26, S 4.34, E 3.3, D 3.96
K5: P 2.55, R 2.61, D 2.24, E 3.02, F 2.66, H 2.38, A 2.91, T 3.41, N 2.5, W 2.46, Q 3.12, S 2.64, Y 2.2, V 2.62, C 1.52, L 2.39, I 3.39, G 2.31
E1: W 1.76, Y 2.06, P 2.2, N 2.31, R 2.9, G 1.99, S 2.44, K 1.83, C 1.85, L 2.53, D 2.94, Q 3.43, H 2.75, A 1.55, V 2.45, I 2.33, M 2.37, F 2.13, T 2.65
C9: P 3.86, A 3.62, T 3.02, W 2.34, M 3.83, Q 4.07, E 4.06, L 2.93, H 2.56, D 3.74, G 3.84, R 3.73, V 2.92, F 2.71, N 3.48, Y 3.45, I 2.72, K 3.5, S 3.72
I12: N 1.83, W 2.23, F 1.82, H 1.57, Y 3.01, E 2.94, P 1.73, L 3.66, C 1.26, A 2.29, G 1.17, Q 3.23, K 1.12, M 2.04, D 2.22, S 2.98, V 1.7
K2: F 3.99, D 3.24, I 1.68, T 3.05, P 3.37, Q 2.89, W 2.32, H 3.36, V 3, C 3.25, Y 3.34, E 3.09, M 2.59, R 2.64
S17: W 2.24, C 4.32, I 2.89, D 3.33, M 2.12, P 2.66, L 2.79, Q 1.98, Y 2.47, G 2.63, V 2.08, N 2.75, R 2.42, H 3.51, F 2.85, A 2.43, T 2.06, E 4.22
C6: D 3.49, A 3.37, L 3.19, R 3.08, F 3.46, K 3.03, Q 3.6, Y 3.05, P 3.76, S 2.88, E 3.76, H 2.71, V 3.35, I 3.23, T 3.45, W 2.47, N 3.74
E8: F 2, V 2.27, W 1.88, H 3.07, A 2.51, K 3.12, R 2.85, M 1.95, C 3.16, D 3.18, P 2.74, L 2.37, S 2.28, T 2.74, Y 2.86, I 2.04, Q 1.71, N 2.1
L19: E 1.91, A 1.84, C 4.49, D 2.78

Variants of: B2
Experiment: as above
Settings: c terminus: a fixed tail appended

Protein stability index of substitutions, site by site:
R24: P 3.7, I 2.86, L 3.31, M 3.86, Y 3.15, Q 3.65, T 4.12, S 4.11, W 2.56, V 3.06, N 4.18, K 3.86
